Fewer inactive variants are shown than the library holds.
B1: TPR 5TU (parent)
chain: GGAUCUUCUCGAUCUAACAAAAAAGACAAAUCUGCCACAAAGCUUGAGAGCAUCUUCGGAUGCAGAGGCGGCAGCCUUCGGUGGCGCGAUAGCGCCAACGUUCUCAACUAUGACACGCAAAACGCGUGCUCCGUUGAAUGGAGUUUAUCAUG

Variants of: B1
Test: polymerase ribozyme fitness, log enrichment relative to wild type (log ratio); higher = more active; in vitro selection for triplet polymerase activity
How it was run: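 After PCR construction and transcription, each subunit's mutant library from a heterodimeric triplet polymerase ribozyme was annealed with a biotinylated primer, the partner subunit and triplets. Incubation was frozen, at −7 °C, and extended constructs were gel-excised, bound to streptavidin beads and amplified by RT-PCR, in one selection round done in triplicate. Fitness is the logarithm of a genotype's enrichment divided by that of the wild type, from inverse-variance-weighted replicate averages of Illumina-sequenced inputs and outputs. The base of the logarithm is 2, and genotypes needed ≥10 input reads and ≥1 read per output.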

Q: Which “polymerase ribozyme fitness (log ratio)” value does the source give for GGAUCUUCUCGAUCUACCAAAAAAGACAAAUCUGCCACAAAGCUUGACAGCAUCUUCGGAUGCAGAGGCGGCAGCCUUCGGUGGCGCGAUAGGGCCAACGUUCUCAACUAUGACACGCAAAACGCGUGCUCCGUUGAAUGGAGUUUAUCAUG [A17C G48C C93G] here?
A: -3.01

Q: With GGAUCUUCUCGAUCUACCAAAAAAGACAAAUCUGCCACAAAGCUUGAGAGCAUCUUCGCAUGCAGAGGCGGCAGCCUUCGGUGGCGCGAUAGCGCCAACGUGCUCAACUAUGACACGCAAAAAGCGUGCUCCGUUGAAUGGAGUUUAUCAUG [A17C G59C U102G C123A] as the variant, how does the “polymerase ribozyme fitness (log ratio)” value read?
A: -2.05

Q: For GGAUCUUCUCGAUCUACCAAAAAAGACAAAUCUGCCACAAAGCUUGAGAGCAUCUUCGGAUGCAGAGGCGGCAGCCUUCGUUGGAGCGAUAGCGUCAACGUUCUGAACUAUGACUCGCAAAACGCGUGCUCCGUUGAAUGGAGUUUAUCAUG [A17C G81U C85A C95U C105G A115U], which “polymerase ribozyme fitness (log ratio)” value is on record?
A: -3.03

Q: Which “polymerase ribozyme fitness (log ratio)” value does the source give for GGAUCUUCUCGAUCUACCAAAAAAGACAAAUCUGCCACAAAGCUUGAGAGCAGCAUCGGAUGCAGAGGCGGCAGCCUUCGGUGGCGCGAUAGCGCCAACGUUCUCAACUAUGACACGCAAGACGCGUGCUCCGUUGAAUGGAGUUUAUCAUG [A17C U53G U55A A121G] here?
A: -1.71

Q: Which “polymerase ribozyme fitness (log ratio)” value does the source give for GGAUCUUCUCGAUCUACCAAAAAAAACAAAUCUGCCACAAAGCUUGAGAGCAUCUUCGGAUUCAGAGGCGGCAGCCUUCGGUGGCGCGAUAGCGCCAACGUUCUCAACUAUGACACUCAAAACGCGUGCUCCGUUGAAUGGAGUUUAUCAUG [A17C G25A G62U G117U] here?
A: -2.71

Q: For GGAUCUUCUCGAUCUACAAAAAAAGACAAAUCUGCCACAAAGCUUGAGAGCAUCUUAGGAUGCAGAGGCGGCAGCCUUCGGUGGCGCGAUAGCGUCAAGGUUCUCAACUAUGGCACGCAAAACGCGUGCUCCAUUGAAUGGAGUUUAUCAUU [A17C C18A C57A C95U C99G A113G G133A G152U], which “polymerase ribozyme fitness (log ratio)” value is on record?
A: -4.06

Q: With GGAUCUUCUCGAUCUACCAAAAAAGACAAACCUGCCACAAAGCUUGAGACAAUCUUCGGAUGCAGAGGCGGCAGCCUUCGGUGGCGCGAUAGCGCCAACGUUCUCAACUAUGACACGCAAAACGCGUGCUCCGUUGAAUGGAGUUUAUCAUG [A17C U31C G50C C51A] as the variant, how does the “polymerase ribozyme fitness (log ratio)” value read?
A: -0.997

Q: For GGAUCUUCUCGAUCUACCAAAAAAGACAAAUCUGCCAAAAAGCUUGAGAGCAUCGUCGGAUGCAGAGGCGGCAGCCUUCGGUGGCUCGAUAGCGCCAACGUUCUCAACUAUGACAGGCAAAGCGCGUGCUCCGUUGAAUGGAGUUUAUCAUG [A17C C38A U55G G86U C116G A122G], which “polymerase ribozyme fitness (log ratio)” value is on record?
A: -2.93

Q: With GGAUCUUCUCGAUCUACCAAAAAAGACAAAUCUGCCACAAAGCUUGAGAGCAUCUUCGGAUGCAGAGGCGGCAGCCUUCGGUGGCGCGAUAGCGCCAACGUUCUCAACUAUGACACGCAAAACGCGUGCUCCAUUGAAUGGAGUUUAUCAUG [A17C G133A] as the variant, how does the “polymerase ribozyme fitness (log ratio)” value read?
A: -3.15

Q: With GGAUCUUCUCGAUCUACCAAAAAAGACAAAUCUGCCACAAAGCUUGAGAGCAUCAUCGAGUGCAGAGGCGGCAGCCUUCGGUGGCGCGAUAGCGCAAACGUUCUCAACUAUGACACGCAAAACGCGUGCUCCGUUGAAUGGAUUUUAUCAUG [A17C U55A G59A A60G C96A G143U] as the variant, how does the “polymerase ribozyme fitness (log ratio)” value read?
A: -3.41

Q: Which “polymerase ribozyme fitness (log ratio)” value does the source give for GGAUCUUCUCGAUCUACCAAAAAAGACAAAUCUGCCACAAAGCUUGAGAGCAUCUUCGGAUGCAGAGCCGGCAGCCUUCGGUGGGGCGAUAGCGCCAACGUUCUCAACUAUGACACGCAAAACGUGUGCUCCGUUGAAUGGACUUUAUCAUG [A17C G68C C85G C125U G143C] here?
A: ≤ -4.2

Q: With GGAUCUUCUCGAUCUACCAAAAAAGACAAAUCUGCCACAAAGCGUGAGAGCAUCUUCGGAUGCAGAGGCGGCAGCCUUCGGUGGCGCAAUAGCGGCAACGUUUUCAACUAUGACACGCAAAACGCGUGCUCCGUUGAAUGCAGUUUAUCAUG [A17C U44G G88A C95G C103U G141C] as the variant, how does the “polymerase ribozyme fitness (log ratio)” value read?
A: ≤ -4.2

Q: With GGAUCUUCUCGAUCUACCAAAAAAGACAAAUCUGCCACAAAGCUUGAGAACAUCUUCGGAUGCAGAGGCGGCAGCCUUCGGUGUCGCGAUAGCGCCAACGUUCUCAACUAUGACACGCAAAACGCGUGCUCCGUUGAAUGGACGUUAUCAUG [A17C G50A G84U G143C U144G] as the variant, how does the “polymerase ribozyme fitness (log ratio)” value read?
A: ≤ -4.2

Q: Which “polymerase ribozyme fitness (log ratio)” value does the source give for GGAUCUUCUCGAUCUACCAAAAAAGACAAAUCUGCCACAAAGCUUGAGAGCAUCUUCGGAUGCAGAGGCGGCACCCUUCGGUGGCGUGAUACCGCCAACGUUCUGAACUAUGACACGCAAAACGCGUGCUCCGUUUAAUGGAGUUUAUCAUG [A17C G74C C87U G92C C105G G136U] here?
A: ≤ -4.2

Q: For GGAUCUUCUCGAUCUACCAAAAAAGACAAAUCUGCCACAAAGCUUGAGAGCAUCUUCGGAUGCAGAGGCGGCAGCCUUCGGUGGCGCGAUAGCGCCAACGUUCUCAACUAUGACACGCAAAACGCGUGCUCCAUUGAAUGGAGAUUCUCAUG [A17C G133A U144A A147C], which “polymerase ribozyme fitness (log ratio)” value is on record?
A: -3.99

Q: Which “polymerase ribozyme fitness (log ratio)” value does the source give for GGAUCUUCUCGAUCUACCAAAAAAGACAAAUCUGCCACAAAGCUUGAGAGCAUCUUAGGAUGCAGAGGCGGCAGCCUUCGGUGGCGCGAUAGCGCCAACGUUCUCAACUAUGAUACGCAAAACGCGUGCUCCGUUGAAUGGAGUUUAUCAUG [A17C C57A C114U] here?
A: -1.86

Q: Which “polymerase ribozyme fitness (log ratio)” value does the source give for GGAUCUUCUCGAUCUACCAAAAAAGACAAAUCUGCCACAAAGCUUGAGAGCAUCUUCGGAGGCAGAGGCGGCAGCCUUCGGUGGUGCGAUAGCGCCAACGUUCUCAACUAUGACACGCAAAACGCAUGCUCCGUUGAAUUGAGUUUAUCAAC [A17C U61G C85U G126A G140U U151A G152C] here?
A: ≤ -4.2

Q: For GGAUCUUCUCGAUCUACCAAAAAAGACAAAUCUGUCACAAAGCUUGAGAGCAUCUUCGGAUGCAGAGGCGGCAACAUGCGGUGGCGCGAUAGCGCCAACGUUCUCAACUAUGACACGCAAAACGCGUGCUCCGUUGAAUGGAGUUUAUCAUG [A17C C35U G74A C76A U78G], which “polymerase ribozyme fitness (log ratio)” value is on record?
A: ≤ -4.2

Q: With GGAUCUUCUCGAUCUACCAAAAAAGACAAAUCCGCCACAAACCUUGAGAGAAACUUCGGAUGCAGAGGCGGCAGCCUUCGGUGGCGCGAUAGCGCCAACGUUCUCAACUAUGACACGCAAAACGCGUGCUCCGUUGAAGGGGGUUUAUCAUG [A17C U33C G42C C51A U53A U139G A142G] as the variant, how does the “polymerase ribozyme fitness (log ratio)” value read?
A: ≤ -4.2

From the RNAGym collection of RNA variant scans (doi:10.1073/pnas.2313332121)
